Data taken from the Human Domainome abundance scans (Beltran et al. 2025).
± gives the uncertainty stated by the source.

B1: Nuclear receptor subfamily 4 group A member 2, residues 260 to 336; numbered along this chain, P43354 (parent)
chain: EGLCAVCGDNAACQHYGVRTCEGCKGFFKRTVQKNAKYVCLANKNCPVDKRRRNRCQYCRFQKCLAVGMVKEVVRTD

Variants of: B1
Test: abundance fitness (aPCA) (normalised: wild type 0, dead -1); higher = more abundant; growth selection in yeast, the domain comes from the species named
Settings: Homo sapiens

Variant | abundance fitness
N43M | -0.173 ± 0.27
N43S | -0.123 ± 0.15
N43P | -0.219 ± 0.21
R51C | -0.188 ± 0.09
R51V | -0.035 ± 0.041
R51Y | -0.109 ± 0.17
R51G | -0.001 ± 0.034
R51T | 0.166 ± 0.21
R53M | -0.28 ± 0.25
R53C | -0.078 ± 0.061
R53E | -0.034 ± 0.12
R53A | 0.078 ± 0.11
R53F | -0.101 ± 0.088
R53Y | -0.3 ± 0.37
R53G | 0.06 ± 0.037
R53I | -0.043 ± 0.22
R53Q | 0.172 ± 0.3
Q14I | -0.211 ± 0.4
Q14T | -0.013 ± 0.15
Q14K | 0.256 ± 0.1
Q14G | 0.005 ± 0.07
Q14M | 0.199 ± 0.079
Q14P | -0.012 ± 0.097
Q14D | -0.189 ± 0.1

Variant | abundance fitness
Q14V | 0.095 ± 0.077
Q14S | 0.117 ± 0.14
Q14N | -0.088 ± 0.21
Q14R | -0.061 ± 0.079
H15C | -0.097 ± 0.13
H15N | -0.012 ± 0.15
H15V | 0.016 ± 0.072
H15S | -0.053 ± 0.075
H15P | 0.104 ± 0.1
H15W | 0.013 ± 0.078
D9W | -0.058 ± 0.45
N54L | -0.123 ± 0.065
N54W | -0.015 ± 0.061
N54C | -0.472 ± 0.11
K71M | -0.352 ± 0.2
K71W | -0.194 ± 0.059
K71D | -0.296 ± 0.38
K71Q | 0.33 ± 0.43
K71G | -0.081 ± 0.035
K71Y | 0.114 ± 0.15
T31Q | -0.167 ± 0.45
T31V | -0.061 ± 0.33
G2V | -0.191 ± 0.26
P47C | -0.184 ± 0.081

Variant | abundance fitness
P47E | -0.083 ± 0.17
P47R | -0.102 ± 0.092
P47I | 0.009 ± 0.2
P47W | -0.215 ± 0.062
P47A | -0.033 ± 0.13
Q62E | -0.245 ± 0.17
Q62W | -0.345 ± 0.077
Q62I | -0.241 ± 0.23
Q62L | -0.137 ± 0.062
Q62R | -0.234 ± 0.074
F28T | -0.049 ± 0.083
F28M | -0.176 ± 0.11
F28Q | -0.484 ± 0.13
F28I | -0.262 ± 0.18
F28W | -0.095 ± 0.066
F28V | -0.017 ± 0.054
F28P | -1.06 ± 0.35
V39S | 0.071 ± 0.13
V39G | -0.616 ± 0.18
V39Y | -0.309 ± 0.29
V39A | -0.107 ± 0.17
V39R | -0.055 ± 0.097
V39W | 0.017 ± 0.17
L3V | -0.054 ± 0.19

Variant | abundance fitness
T76N | 0.221 ± 0.42
T76S | -0.014 ± 0.1
T76L | -0.228 ± 0.071
T76F | -0.079 ± 0.1
A66L | 0.005 ± 0.059
A66T | -0.223 ± 0.24
A66G | -0.013 ± 0.042
A66W | -0.282 ± 0.074
V73D | -0.105 ± 0.14
V73L | -0.065 ± 0.08
V73R | -0.099 ± 0.091
V73M | -0.032 ± 0.17
V73G | -0.024 ± 0.033
V73C | -0.131 ± 0.071
V73A | -0.258 ± 0.076
V73T | 0.274 ± 0.43
V73S | -0.305 ± 0.17
V73H | 0.014 ± 0.32
Y38V | -0.057 ± 0.39
Y38H | 0.149 ± 0.23
G23S | 0.306 ± 0.21
G23A | -0.136 ± 0.23
G23I | 0.017 ± 0.25
R75T | 0.214 ± 0.37

Variant | abundance fitness
R75I | -0.017 ± 0.14
R75L | 0.015 ± 0.053
Y58A | 0.041 ± 0.085
Y58D | -0.123 ± 0.17
Y58F | 0.051 ± 0.11
Y58R | -0.345 ± 0.12
K25V | 0.046 ± 0.085
K25W | -0.013 ± 0.13
K25N | 0.033 ± 0.36
K25G | 0.101 ± 0.094
K25T | -0.12 ± 0.17
K25F | -0.047 ± 0.36
K25M | 0.082 ± 0.12
K25R | 0.079 ± 0.071
K25A | 0.127 ± 0.11
K25P | -0.675 ± 0.3
K25L | 0.057 ± 0.098
L41H | -0.069 ± 0.37
L41V | 0.022 ± 0.15
L41Q | -0.248 ± 0.27
L41G | -0.109 ± 0.11
L41K | -0.167 ± 0.25
A42I | -0.183 ± 0.23
A42S | 0.048 ± 0.17

Variant | abundance fitness
A42K | 0.629 ± 0.5
G17P | -0.841 ± 0.34
G17Q | 0.044 ± 0.15
G17T | -0.097 ± 0.11
G17H | -0.004 ± 0.33
G17W | -0.383 ± 0.33
C24V | -0.802 ± 0.37
V70A | 0.06 ± 0.062
V70P | -0.197 ± 0.18
V70S | -0.053 ± 0.097
V70K | -0.208 ± 0.43
V70L | -0.023 ± 0.058
V70F | -0.095 ± 0.071
D77S | -0.124 ± 0.12
D77F | -0.229 ± 0.15
D77M | -0.092 ± 0.14
D77P | 0.163 ± 0.18
D77R | -0.3 ± 0.089
D77E | 0.117 ± 0.14
C64L | -0.372 ± 0.08
C64I | -0.399 ± 0.36
C64F | -0.848 ± 0.23
C64W | -0.859 ± 0.1
V67F | -0.449 ± 0.13

Variant | abundance fitness
V67C | -0.114 ± 0.072
V67S | -0.097 ± 0.11
V67A | -0.029 ± 0.063
V67E | -0.017 ± 0.077
V67G | -0.261 ± 0.04
G26T | 0.051 ± 0.13
G26F | 0.068 ± 0.18
G26A | -0.079 ± 0.088
G26V | -0.191 ± 0.096
G26D | -0.062 ± 0.36
G26W | -0.388 ± 0.091
G26Q | -0.171 ± 0.071
K34R | -0.243 ± 0.24
K34S | -0.051 ± 0.21
K34W | -0.227 ± 0.49
K50Y | 0.024 ± 0.13
K50T | 0.102 ± 0.24
K50D | -0.215 ± 0.17
K50S | -0.001 ± 0.097
K50C | -0.115 ± 0.074
K50P | 0.356 ± 0.29
K50R | -0.193 ± 0.082
K50G | -0.045 ± 0.037
